B1: TR2: Testicular Orphan Nuclear Receptor 2 (NR2C1), cDNA driver (protein, UniProt P13056 1-603, looked up)
Nuclear receptor subfamily 2 …: MATIEEIAHQIIEQQMGEIVTEQQTGQKIQIVTALDHNTQGKQFILTNHDGSTPSKVILARQDSTPGKVFLTTPDAAGVNQLFFTTPDLSAQHLQLLTDNSPDQGPNKVFDLCVVCGDKASGRHYGAVTCEGCKGFFKRSIRKNLVYSCRGSKDCIINKHHRNRCQYCRLQRCIAFGMKQDSVQCERKPIEVSREKSSNCAASTEKIYIRKDLRSPLTATPTFVTDSESTRSTGLLDSGMFMNIHPSGVKTESAVLMTSDKAESCQGDLSTLANVVTSLANLGKTKDLSQNSNEMSMIESLSNDDTSLCEFQEMQTNGDVSRAFDTLAKALNPGESTACQSSVAGMEGSVHLITGDSSINYTEKEGPLLSDSHVAFRLTMPSPMPEYLNVHYIGESASRLLFLSMHWALSIPSFQALGQENSISLVKAYWNELFTLGLAQCWQVMNVATILATFVNCLHNSLQQDKMSTERRKLLMEHIFKLQEFCNSMVKLCIDGYEYAYLKAIVLFSPDHPSLENMEQIEKFQEKAYVEFQDYITKTYPDDTYRLSRLLLRLPALRLMNATITEELFFKGLIGNIRIDSVIPHILKMEPADYNSQIIGHSI
B2: RORb: RAR-related Orphan Receptor β (NR1F2), cDNA driver (protein, UniProt Q92753 1-470, looked up)
Nuclear receptor ROR-beta: MCENQLKTKADATAQIEVIPCKICGDKSSGIHYGVITCEGCKGFFRRSQQNNASYSCPRQRNCLIDRTNRNRCQHCRLQKCLALGMSRDAVKFGRMSKKQRDSLYAEVQKHQQRLQEQRQQQSGEAEALARVYSSSISNGLSNLNNETSGTYANGHVIDLPKSEGYYNVDSGQPSPDQSGLDMTGIKQIKQEPIYDLTSVPNLFTYSSFNNGQLAPGITMTEIDRIAQNIIKSHLETCQYTMEELHQLAWQTHTYEEIKAYQSKSREALWQQCAIQITHAIQYVVEFAKRITGFMELCQNDQILLLKSGCLEVVLVRMCRAFNPLNNTVLFEGKYGGMQMFKALGSDDLVNEAFDFAKNLCSLQLTEEEIALFSSAVLISPDRAWLIEPRKVQKLQEKIYFALQHVIQKNHLDDETLAKLIAKIPTITAVCNLHGEKLQVFKQSHPEIVNTLFPPLYKELFNPDCATGCK
B3: HNF4g: Hepatocyte Nuclear Factor γ (NR2A2), cDNA driver (protein, UniProt Q14541 1-408, looked up)
Hepatocyte nuclear factor …: MNTTDNGVNCLCAICGDRATGKHYGASSCDGCKGFFRRSIRKSHVYSCRFSRQCVVDKDKRNQCRYCRLRKCFRAGMKKEAVQNERDRISTRRSTFDGSNIPSINTLAQAEVRSRQISVSSPGSSTDINVKKIASIGDVCESMKQQLLVLVEWAKYIPAFCELPLDDQVALLRAHAGEHLLLGATKRSMMYKDILLLGNNYVIHRNSCEVEISRVANRVLDELVRPFQEIQIDDNEYACLKAIVFFDPDAKGLSDPVKIKNMRFQVQIGLEDYINDRQYDSRGRFGELLLLLPTLQSITWQMIEQIQFVKLFGMVKIDNLLQEMLLGGASNDGSHLHHPMHPHLSQDPLTGQTILLGPMSTLVHADQISTPETPLPSPPQGSGQEQYKIAANQASVISHQHLSKQKQL
B4: TR4: Testicular Orphan Nuclear Receptor 4 (NR2C2), cDNA driver (protein, UniProt P49116 1-596, looked up)
Nuclear receptor subfamily 2 …: MTSPSPRIQIISTDSAVASPQRIQIVTDQQTGQKIQIVTAVDASGSPKQQFILTSPDGAGTGKVILASPETSSAKQLIFTTSDNLVPGRIQIVTDSASVERLLGKTDVQRPQVVEYCVVCGDKASGRHYGAVSCEGCKGFFKRSVRKNLTYSCRSNQDCIINKHHRNRCQFCRLKKCLEMGMKMESVQSERKPFDVQREKPSNCAASTEKIYIRKDLRSPLIATPTFVADKDGARQTGLLDPGMLVNIQQPLIREDGTVLLATDSKAETSQGALGTLANVVTSLANLSESLNNGDTSEIQPEDQSASEITRAFDTLAKALNTTDSSSSPSLADGIDTSGGGSIHVISRDQSTPIIEVEGPLLSDTHVTFKLTMPSPMPEYLNVHYICESASRLLFLSMHWARSIPAFQALGQDCNTSLVRACWNELFTLGLAQCAQVMSLSTILAAIVNHLQNSIQEDKLSGDRIKQVMEHIWKLQEFCNSMAKLDIDGYEYAYLKAIVLFSPDHPGLTSTSQIEKFQEKAQMELQDYVQKTYSEDTYRLARILVRLPALRLMSSNITEELFFTGLIGNVSIDSIIPYILKMETAEYNGQITGASL

Assays:
mCAR promoter = assay: NHR-promoter luciferase screen, mCAR promoter; type: cell-based, mouse; conditions: for luciferase activity normalized to lacZ activity and to a control, mCAR: mCAR promoter-luciferase, CV-1 cells, NHR +/- ligand, control = 1.00; for Luc. act., normalized to lacZ / Normalized Luc. act., normalized to control: mCAR promoter, HR/ligand component
Procedure, shortened: (§1)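 CV-1 cells were co-transfected with 50 ng NHR (homodimer or NHR/RXR heterodimer), 100 ng promoter-luciferase construct and 50 ng LacZ. Luciferase was normalized to LacZ and to a no-NHR/no-ligand control.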

mUCP2 promoter = assay: NHR-promoter luciferase screen, mUCP2 promoter; type: cell-based, mouse; conditions: for Luc. act., normalized to lacZ / Normalized Luc. act., normalized to control: mUCP2 promoter reporter, co-transfected HR, with or without its ligand; for Normalized Luc. act., normalized to control: relative to control; for luciferase activity normalized to lacZ activity and to a control, mUCP2: mUCP2 promoter-luciferase, CV-1 cells, NHR +/- ligand, control = 1.00
Procedure, shortened: as §1

mLeptin promoter = assay: NHR-promoter luciferase screen, mLeptin promoter; type: cell-based, mouse; conditions: for Luc. act., normalized to lacZ / Normalized Luc. act., normalized to control: Table 7, mLeptin; for Results of assays of transcription factor (+/- ligand) with mLeptin: Table 6d, luciferase activity relative to control (control = 1.00)
Procedure, shortened: as §1

hCYP3A4 promoter = assay: NHR-promoter luciferase screen, hCYP3A4 promoter; type: cell-based, human; conditions: for Luc. act., normalized to lacZ / Normalized Luc. act., normalized to control: CYP3A4 promoter, HR/ligand component; for hCYP3A4 promoter reporter activity: transcription factor +/- ligand, control = 1.00
Procedure, shortened: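 Luciferase reporter read-out after co-expression in CV-1 cells of V5H6-tagged receptor (alone or with RXR), the promoter construct and LacZ. Values are luciferase/LacZ relative to a control lacking NHR or ligand; orphan receptors tested ligand-free.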

hIFNg promoter = assay: NHR-promoter luciferase screen, hIFNg promoter; type: cell-based, human; conditions: for Luc. act., normalized to lacZ / Normalized Luc. act., normalized to control: IFNg promoter, HR component without or with ligand; for hIFNg promoter reporter activity: transcription factor +/- ligand, control = 1.00
Procedure, shortened: as §1

hPPARg1 promoter = assay: NHR-promoter luciferase screen, hPPARg1 promoter; type: cell-based, human; conditions: for Luc. act., normalized to lacZ / Normalized Luc. act., normalized to control: PPARG1 promoter, hormone receptor with or without its ligand; for Normalized Luc. act., normalized to control: relative to control; for Results of assays of transcription factor (+/- ligand) with hPPARg1: Table 6d, luciferase activity relative to control (control = 1.00)
Procedure, shortened: as §1

Molecule | luciferase activity normalized to lacZ activity and to a control, mCAR (mCAR promoter) | Luc. act., normalized to lacZ (mCAR promoter) | Normalized Luc. act., normalized to control (mCAR promoter) | Luc. act., normalized to lacZ (mUCP2 promoter) | Normalized Luc. act., normalized to control (mUCP2 promoter) | luciferase activity normalized to lacZ activity and to a control, mUCP2 (mUCP2 promoter) | Luc. act., normalized to lacZ (mLeptin promoter) | Normalized Luc. act., normalized to control (mLeptin promoter) | Results of assays of transcription factor (+/- ligand) with mLeptin (mLeptin promoter) | Luc. act., normalized to lacZ (hCYP3A4 promoter) | Normalized Luc. act., normalized to control (hCYP3A4 promoter) | hCYP3A4 promoter reporter activity (hCYP3A4 promoter) | Luc. act., normalized to lacZ (hIFNg promoter) | Normalized Luc. act., normalized to control (hIFNg promoter) | hIFNg promoter reporter activity (hIFNg promoter) | Luc. act., normalized to lacZ (hPPARg1 promoter) | Normalized Luc. act., normalized to control (hPPARg1 promoter) | Results of assays of transcription factor (+/- ligand) with hPPARg1 (hPPARg1 promoter) | luciferase/LacZ, mLeptin (selected results) (mLeptin promoter; mLeptin promoter-luciferase, NHR +/- ligand, control = 1.0)
B1 | 0.81 | 31.0 | 0.8 | 208.9 | 1.9 | 1.90 | 3.4 | 1.1 | 1.15 | 2.0 | 0.4 | 0.44 | 13.6 | 0.9 | 0.85 | 45.5 | 0.7 | 0.66 | –
B2 | 1.15 | 43.7 | 1.1 | 176.2 | 1.6 | 1.60 | 3.3 | 1.1 | 1.12 | 2.5 | 0.6 | 0.56 | 22.2 | 1.4 | 1.40 | 51.1 | 0.7 | 0.74 | –
B3 | 1.43 | 54.5 | 1.4 | 114.8 | 1.0 | 1.04 | 2.4 | 0.8 | 0.82 | 1.8 | 0.4 | 0.40 | 13.3 | 0.8 | 0.83 | 42.1 | 0.6 | 0.61 | –
B4 | 2.52 | 96.2 | 2.5 | 199.0 | 1.8 | 1.81 | 7.5 | 2.6 | 2.56 | 7.7 | 1.7 | 1.74 | 42.5 | 2.7 | 2.67 | 66.2 | 1.0 | 0.96 | 2.6

— patent publication US20110263454A1, “Methods of Identifying Functional Characteristics of Promoters, Transcription Modifying Proteins and Transcription Modulating Agents” (Salk Institute for Biological Studies, priority 2008, published 2011)
